Test results as given in patent EP1379283B1, “IDENTIFICATION OF TARGET-SPECIFIC FOLDING SITES IN PEPTIDES AND PROTEINS” (Palatin Technologies, Inc., priority 2000, dated 2002).
Square brackets hold non-standard residues; d marks the D form. Ends that are not written are not given here. dChg = N[C@@H](C(=O)O)C1CCCCC1; Chg = N[C@H](C(=O)O)C1CCCCC1; Orn = NCCC[C@H](N)C(=O)O; Dap = NC[C@H](N)C(=O)O

How the values were obtained:
uPA receptor = molecular target: T1, uPA receptor (Homo sapiens, UniProt Q03405); assay: uPA receptor-binding assay using U937 cells and ATF as competitive ligand; settings: for % Inhibition at 1 µM: 1 µM metallopeptide, U937 cells, ATF as competitive receptor binding ligand
T1 construct: endogenous in cells; host or cells: U937 cells
T1 sequence (Q03405 23-335): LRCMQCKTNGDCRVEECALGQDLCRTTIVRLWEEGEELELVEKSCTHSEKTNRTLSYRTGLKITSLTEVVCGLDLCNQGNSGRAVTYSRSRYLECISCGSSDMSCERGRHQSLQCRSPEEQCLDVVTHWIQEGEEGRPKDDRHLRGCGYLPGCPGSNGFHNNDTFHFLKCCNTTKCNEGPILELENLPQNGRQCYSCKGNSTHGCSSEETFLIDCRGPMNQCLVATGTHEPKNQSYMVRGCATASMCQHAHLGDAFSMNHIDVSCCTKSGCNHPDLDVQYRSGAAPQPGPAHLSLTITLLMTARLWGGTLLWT

vasopressin-1 receptor = molecular target: T2, vasopressin-1 receptor (Rattus norvegicus, UniProt P30560); assay: vasopressin-1 receptor binding, 3H-vasopressin-1 antagonist, cell membranes from rat liver
T2 construct: cell membranes prepared from rat liver; from tissue; host or cells: rat liver membranes
T2 sequence (P30560 whole entry): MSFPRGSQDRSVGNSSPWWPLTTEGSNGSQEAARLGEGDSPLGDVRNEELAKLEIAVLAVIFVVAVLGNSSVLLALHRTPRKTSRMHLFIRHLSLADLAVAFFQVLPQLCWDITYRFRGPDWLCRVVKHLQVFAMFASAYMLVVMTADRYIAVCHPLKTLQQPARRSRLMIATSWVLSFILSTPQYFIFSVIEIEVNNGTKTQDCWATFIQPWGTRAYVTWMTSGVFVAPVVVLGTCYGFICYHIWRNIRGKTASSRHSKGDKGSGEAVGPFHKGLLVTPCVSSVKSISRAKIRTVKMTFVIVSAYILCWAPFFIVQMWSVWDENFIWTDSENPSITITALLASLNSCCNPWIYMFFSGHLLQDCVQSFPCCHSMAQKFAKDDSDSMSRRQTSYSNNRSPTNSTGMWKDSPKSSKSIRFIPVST
Experimental: The screening of compounds for vasopressin-1 receptor was performed using cell membranes prepared from rat liver. The assay was essentially performed as described above for the oxytocin receptor assay. In this assay 2-4 nM ^3H-vasopressin-1 antagonist (obtained from Perkin Elemer- NEN Life Sciences) was used as the radiotracer and Arg^8-vasopressin (1 µM final concentration in the assay) was used to determine non-specific binding. The assay was performed in triplicates. Activity profile for the test compounds were generated by their ability to inhibit specific binding of the radiotracer to its receptor.

oxytocin receptor = molecular target: T3, oxytocin receptor (Rattus norvegicus, UniProt P70536); assay: oxytocin receptor binding, 3H-oxytocin, cell membranes from rat uterus; settings: for % Inhibition at 1 µM Oxytocin Receptor: rat uterus membranes, 3H-oxytocin; for activity at oxytocin receptor: conclusion from Table 30
T3 construct: cell membranes prepared from rat uterus; from tissue; host or cells: rat uterus membranes
T3 sequence (P70536 1-388): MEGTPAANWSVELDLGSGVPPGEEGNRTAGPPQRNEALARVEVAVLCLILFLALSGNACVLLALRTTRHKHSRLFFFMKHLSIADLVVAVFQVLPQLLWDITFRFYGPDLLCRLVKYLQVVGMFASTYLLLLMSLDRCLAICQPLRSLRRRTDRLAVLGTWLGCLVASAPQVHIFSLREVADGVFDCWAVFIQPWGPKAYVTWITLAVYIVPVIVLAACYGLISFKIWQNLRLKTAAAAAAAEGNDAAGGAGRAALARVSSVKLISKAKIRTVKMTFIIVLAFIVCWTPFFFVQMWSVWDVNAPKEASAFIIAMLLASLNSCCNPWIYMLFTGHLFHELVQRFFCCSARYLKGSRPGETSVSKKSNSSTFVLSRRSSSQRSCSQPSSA
Experimental: The screening of metallopeptides for binding to oxytocin receptor was done using cell membranes prepared from rat uterus. […] The membrane preparations (10 - 50 µg/well) were incubated with 412-800 pM ^3H-oxytocin in HEPES Buffer containing 0.2% bovine serum albumin along with a test compound (1 µM final assay concentration) for 2 hours at 4° C. Non-specific binding was determined by addition of 10^-6 M oxytocin instead of the test compound. After incubation, the membranes were filtered and washed three times with ice-cold PBS. The membranes were air-dried and punched directly into scintillation vials. After addition of the scintillation cocktail, the vials were capped and gently shaken for 12 hours to dissolve the radioactivity contained in the filters. The vials were then read for tritium counts in a scintillation counter. Specific binding was determined as the radioactivity in wells containing ^3H-oxytocin alone minus the radioactivity in wells containing 10^-6 M oxytocin. The assay was performed in triplicates. The activity profile for the test compounds were generated by their ability to inhibit specific binding of the radiotracer to its receptor.

[1] = Table 30, oxytocin ligand library
[2] = Table 29, vasopressin ligand library

Ac-Val-Ser-Cys-Asn-Lys-Tyr-Phe-Ser-Asn-Ile-His-Trp-NH2 (Ac-VSCNKYFSNIHW-NH2; not fully specified (bridges); printed as Ac-Val-Ser-Cys-Asn-Lys-Tyr-Phe-Ser-Asn-Ile-His-Trp-NH2; also: oxorhenium(V) N3S1 metal chelate (X-X-Cys)) [SEQ ID NO:4]
% Inhibition at 1 µM (uPA receptor): 0.0%

Ala-Tyr-Cys-Ile-Gln-Asn-Ala-Pro-Leu-Gly-NH2 (AYCIQNAPLG-NH2; not fully specified (bridges); printed as Ala-Tyr-Cys-Ile-Gln-Asn-Ala-Pro-Leu-Gly-NH2; also: oxorhenium(V) N3S1 metal chelate (X-X-Cys)) [SEQ ID NO:158]
% Inhibition at 1 µM Vasopressin-1 Receptor (vasopressin-1 receptor; [1]): 1% | % Inhibition at 1 µM Oxytocin Receptor (oxytocin receptor; [1]): 6%

Ala-Tyr-Ile-Gln-Asn-Ala-Cys-Pro-Leu-Gly-NH2 (AYIQNACPLG-NH2; not fully specified (bridges); printed as Ala-Tyr-Ile-Gln-Asn-Ala-Cys-Pro-Leu-Gly-NH2; also: oxorhenium(V) N3S1 metal chelate (X-X-Cys)) [SEQ ID NO:153]
% Inhibition at 1 µM Vasopressin-1 Receptor (vasopressin-1 receptor; [1]): 0% | % Inhibition at 1 µM Oxytocin Receptor (oxytocin receptor; [1]): 2%

Ala-Tyr-Ile-Gln-Asn-Ala-Pro-Leu-Gly-Cys-NH2 (AYIQNAPLGC-NH2; not fully specified (bridges); printed as Ala-Tyr-Ile-Gln-Asn-Ala-Pro-Leu-Gly-Cys-NH2; also: oxorhenium(V) N3S1 metal chelate (X-X-Cys)) [SEQ ID NO:149]
% Inhibition at 1 µM Vasopressin-1 Receptor (vasopressin-1 receptor; [1]): 0% | % Inhibition at 1 µM Oxytocin Receptor (oxytocin receptor; [1]): 6%

Caca-D-Trp-Ile-Thr-Cys-Dap-Ala-Pro-Orn-NH2
% Inhibition at 1 µM Vasopressin-1 Receptor (vasopressin-1 receptor; [2]): 0% | % Inhibition at 1 µM Oxytocin Receptor (oxytocin receptor; [2]): 0%

Ac-Val-Ser-Asn-Lys-Tyr-Cys-Phe-Ser-Asn-Ile-His-Trp-NH2 (Ac-VSNKYCFSNIHW-NH2; not fully specified (bridges); printed as Ac-Val-Ser-Asn-Lys-Tyr-Cys-Phe-Ser-Asn-Ile-His-Trp-NH2; also: oxorhenium(V) N3S1 metal chelate (X-X-Cys)) [SEQ ID NO:7]
% Inhibition at 1 µM (uPA receptor): 18.0%

Ac-Val-Ser-Asn-Lys-Tyr-Phe-Ser-Asn-Ile-His-Cys-Trp-NH2 (Ac-VSNKYFSNIHCW-NH2; not fully specified (bridges); printed as Ac-Val-Ser-Asn-Lys-Tyr-Phe-Ser-Asn-Ile-His-Cys-Trp-NH2; also: oxorhenium(V) N3S1 metal chelate (X-X-Cys)) [SEQ ID NO:3]
% Inhibition at 1 µM (uPA receptor): 106.0% | relative potency in uPA receptor binding (uPA receptor; compared with the other metallopeptides of Table 1): most potent

Caca-D-Trp-Ile-Thr-Dap-Ala-Ala-Orn-Cys-NH2
% Inhibition at 1 µM Vasopressin-1 Receptor (vasopressin-1 receptor; [2]): 23% | % Inhibition at 1 µM Oxytocin Receptor (oxytocin receptor; [2]): 0%

Pmp-D-Trp-Cys-Ile-Thr-Dap-Ala-Pro-Orn-NH2
% Inhibition at 1 µM Vasopressin-1 Receptor (vasopressin-1 receptor; [2]): 23% | % Inhibition at 1 µM Oxytocin Receptor (oxytocin receptor; [2]): 0%

Ala-Tyr-Ile-Gln-Asn-Ala-Cys-Ala-Leu-Gly-NH2 (AYIQNACALG-NH2; not fully specified (bridges); printed as Ala-Tyr-Ile-Gln-Asn-Ala-Cys-Ala-Leu-Gly-NH2; also: oxorhenium(V) N3S1 metal chelate (X-X-Cys)) [SEQ ID NO:154]
% Inhibition at 1 µM Vasopressin-1 Receptor (vasopressin-1 receptor; [1]): 0% | % Inhibition at 1 µM Oxytocin Receptor (oxytocin receptor; [1]): 31% | activity at oxytocin receptor (oxytocin receptor): active

Caca-D-Trp-Ile-Thr-Dap-Cys-Ala-Pro-Orn-NH2
% Inhibition at 1 µM Vasopressin-1 Receptor (vasopressin-1 receptor; [2]): 22% | % Inhibition at 1 µM Oxytocin Receptor (oxytocin receptor; [2]): 9%

Ac-Val-Ser-Asn-Lys-Cys-Tyr-Phe-Ser-Asn-Ile-His-Trp-NH2 (Ac-VSNKCYFSNIHW-NH2; not fully specified (bridges); printed as Ac-Val-Ser-Asn-Lys-Cys-Tyr-Phe-Ser-Asn-Ile-His-Trp-NH2; also: oxorhenium(V) N3S1 metal chelate (X-X-Cys)) [SEQ ID NO:6]
% Inhibition at 1 µM (uPA receptor): 13.0%

Caca-D-Trp-Ile-Thr-Dap-Ala-Ala-Cys-Orn-NH2
% Inhibition at 1 µM Vasopressin-1 Receptor (vasopressin-1 receptor; [2]): 0% | % Inhibition at 1 µM Oxytocin Receptor (oxytocin receptor; [2]): 0%

Ala-Tyr-Ile-Cys-Gln-Asn-Ala-Pro-Leu-Gly-NH2 (AYICQNAPLG-NH2; not fully specified (bridges); printed as Ala-Tyr-Ile-Cys-Gln-Asn-Ala-Pro-Leu-Gly-NH2; also: oxorhenium(V) N3S1 metal chelate (X-X-Cys)) [SEQ ID NO:157]
% Inhibition at 1 µM Vasopressin-1 Receptor (vasopressin-1 receptor; [1]): 0% | % Inhibition at 1 µM Oxytocin Receptor (oxytocin receptor; [1]): 0%

Ala-Tyr-Ile-Gln-Asn-Ala-Ala-Leu-Cys-Gly-NH2 (AYIQNAALCG-NH2; not fully specified (bridges); printed as Ala-Tyr-Ile-Gln-Asn-Ala-Ala-Leu-Cys-Gly-NH2; also: oxorhenium(V) N3S1 metal chelate (X-X-Cys)) [SEQ ID NO:151]
% Inhibition at 1 µM Vasopressin-1 Receptor (vasopressin-1 receptor; [1]): 0% | % Inhibition at 1 µM Oxytocin Receptor (oxytocin receptor; [1]): 0%

Ala-Tyr-Ile-Gln-Cys-Asn-Ala-Pro-Leu-Gly-NH2 (AYIQCNAPLG-NH2; not fully specified (bridges); printed as Ala-Tyr-Ile-Gln-Cys-Asn-Ala-Pro-Leu-Gly-NH2; also: oxorhenium(V) N3S1 metal chelate (X-X-Cys)) [SEQ ID NO:156]
% Inhibition at 1 µM Vasopressin-1 Receptor (vasopressin-1 receptor; [1]): 0% | % Inhibition at 1 µM Oxytocin Receptor (oxytocin receptor; [1]): 18% | activity at oxytocin receptor (oxytocin receptor): active

Ac-Val-Ser-Asn-Lys-Tyr-Phe-Ser-Asn-Ile-Cys-His-Trp-NH2 (Ac-VSNKYFSNICHW-NH2; not fully specified (bridges); printed as Ac-Val-Ser-Asn-Lys-Tyr-Phe-Ser-Asn-Ile-Cys-His-Trp-NH2; also: oxorhenium(V) N3S1 metal chelate (X-X-Cys)) [SEQ ID NO:11]
% Inhibition at 1 µM (uPA receptor): 0.0%

Ac-Val-Ser-Asn-Lys-Tyr-Phe-Ser-Asn-Cys-Ile-His-Trp-NH2 (Ac-VSNKYFSNCIHW-NH2; not fully specified (bridges); printed as Ac-Val-Ser-Asn-Lys-Tyr-Phe-Ser-Asn-Cys-Ile-His-Trp-NH2; also: oxorhenium(V) N3S1 metal chelate (X-X-Cys)) [SEQ ID NO:10]
% Inhibition at 1 µM (uPA receptor): 32.0%

Ala-Tyr-Ile-Gln-Asn-Cys-Ala-Pro-Leu-Gly-NH2 (AYIQNCAPLG-NH2; not fully specified (bridges); printed as Ala-Tyr-Ile-Gln-Asn-Cys-Ala-Pro-Leu-Gly-NH2; also: oxorhenium(V) N3S1 metal chelate (X-X-Cys)) [SEQ ID NO:155]
% Inhibition at 1 µM Vasopressin-1 Receptor (vasopressin-1 receptor; [1]): 0% | activity at oxytocin receptor (oxytocin receptor): maximal activity

Caca-D-Trp-Ile-Cys-Thr-Dap-Ala-Pro-Orn-NH2
% Inhibition at 1 µM Vasopressin-1 Receptor (vasopressin-1 receptor; [2]): 52% | % Inhibition at 1 µM Oxytocin Receptor (oxytocin receptor; [2]): 0%

[dChg][dW]CIT[Dap]AP[Orn]-NH2
% Inhibition at 1 µM Vasopressin-1 Receptor (vasopressin-1 receptor; [2]): 8% | % Inhibition at 1 µM Oxytocin Receptor (oxytocin receptor; [2]): 0%

Ala-Tyr-Ile-Gln-Asn-Ala-Ala-Cys-Leu-Gly-NH2 (AYIQNAACLG-NH2; not fully specified (bridges); printed as Ala-Tyr-Ile-Gln-Asn-Ala-Ala-Cys-Leu-Gly-NH2; also: oxorhenium(V) N3S1 metal chelate (X-X-Cys)) [SEQ ID NO:152]
% Inhibition at 1 µM Vasopressin-1 Receptor (vasopressin-1 receptor; [1]): 1% | % Inhibition at 1 µM Oxytocin Receptor (oxytocin receptor; [1]): 0%

Caca-D-Trp-Ile-Thr-Dap-Ala-Cys-Pro-Orn-NH2
% Inhibition at 1 µM Vasopressin-1 Receptor (vasopressin-1 receptor; [2]): 0% | % Inhibition at 1 µM Oxytocin Receptor (oxytocin receptor; [2]): 0%

[Chg][dW]CIT[Dap]AP[Orn]-NH2
% Inhibition at 1 µM Vasopressin-1 Receptor (vasopressin-1 receptor; [2]): 0% | % Inhibition at 1 µM Oxytocin Receptor (oxytocin receptor; [2]): 0%

Caca-D-Trp-Ile-Thr-Dap-Ala-Cys-Ala-Orn-NH2
% Inhibition at 1 µM Vasopressin-1 Receptor (vasopressin-1 receptor; [2]): 0% | % Inhibition at 1 µM Oxytocin Receptor (oxytocin receptor; [2]): 0%

Ala-Tyr-Ile-Gln-Asn-Ala-Ala-Leu-Gly-Cys-NH2 (AYIQNAALGC-NH2; not fully specified (bridges); printed as Ala-Tyr-Ile-Gln-Asn-Ala-Ala-Leu-Gly-Cys-NH2; also: oxorhenium(V) N3S1 metal chelate (X-X-Cys)) [SEQ ID NO:150]
% Inhibition at 1 µM Vasopressin-1 Receptor (vasopressin-1 receptor; [1]): 0% | % Inhibition at 1 µM Oxytocin Receptor (oxytocin receptor; [1]): 0%
